The source of these data is FireProtDB (doi:10.1093/protein/14.12.967).

The labels stand for the following.
B1: Lysozyme C, milk isozyme, P81708 (parent)
chain: KIFSKCELARKLKSMGMDGFHGYSLANWVCMAEYESNFNTQAFNGRNSNGSSDYGIFQLNSKWWCKSNSHSSANACNIMCSKFLDDNIDDDIACAKRVVKDPNGMSAWVAWVKHCKGKDLSKYLASCNL

The data set covers variants of B1. The note with it: Canis lupus familiaris, pH 4.5, Thermal, DSC, sodium acetate 50 mM, reversible: yes, structure 1EL1, whole UniProt chain shown.

Values joined by “and” are separate entries in the source; they are usually repeats but may differ in a detail not shown here. Identical values can stand only once.

KIFSKCELARKLKSMGMDGFHGYSLANWVCMAEYESNFNTQAFNGRNSNGSSDYGLFQLNSKWWCKSNSHSSANACNIMCSKFLDDNIDDDIACAKRVVKDPNGMSAWVAWVKHCKGKDLSKYLASCNL [I56L]: for the setting “66.4 °C”, the “ddG of mutation (higher = less stable)” value amounted to 0.24 kcal/mol, the “unfolding enthalpy (calorimetric)” value stood at 31.8 kcal/mol and the unfolding free energy amounted to 1.91 kcal/mol. In addition, under “transition: 3”, the “change of melting temperature, mutant - wild type (higher = more stable)” value (from here on “change of melting temperature, mutant”) is -2.44 °C; the “unfolding enthalpy (calorimetric)” value is 23.8 kcal/mol and 43.8 kcal/mol.
As for KIFSKCELARKLKSMGMDGFHGYSLANWVCMAEYESNFNTQAFNGRNSNGSSDYGIFQLNSKWWCKSNSHSSANACNIMCSKFLDDNIDDDISCAKRVVKDPNGMSAWVAWVKHCKGKDLSKYLASCNL [A93S], under “66.4 °C”, the “ddG of mutation (higher = less stable)” value amounted to 0.26 kcal/mol, the “unfolding enthalpy (calorimetric)” value worked out at 32 kcal/mol and the unfolding free energy amounted to 1.89 kcal/mol. Besides, where the note is “transition: 3”, the “change of melting temperature, mutant” value was -2.59 °C; the “unfolding enthalpy (calorimetric)” value was 39.6 kcal/mol and 43.8 kcal/mol.
As for KIFSKCELARKLKSMGMDGFGGYSLANWVCMAEYESNFNTQAFNGRNSNGSSDYGIFQLNSKWWCKSNSHSSANACNIMCSKFLDDNIDDDIACAKRVVKDPNGMSAWVAWVKHCKGKDLSKYLASCNL [H21G], for the setting “66.4 °C”, the “ddG of mutation (higher = less stable)” value was determined as 0.48 kcal/mol, the “unfolding enthalpy (calorimetric)” value was found to be 29.1 kcal/mol and the unfolding free energy turned out to be 1.67 kcal/mol. In addition, where the note is “transition: 3”, the “change of melting temperature, mutant” value is -3.28 °C; the “unfolding enthalpy (calorimetric)” value is 29.9 kcal/mol and 40.6 kcal/mol.
On to KIFSKCELARKLKSMGMDGFHGYSLANWVCMAEYESNFNTQAFNGRNSNGSSDYGIFQLNSKWWCKSNSHSSANACNIMCSKFLDDNIDDDIACAKRVVKDPNGMSAWKAWVKHCKGKDLSKYLASCNL [V109K], for which, where the note is “66.4 °C”, the “ddG of mutation (higher = less stable)” value was determined as 0.43 kcal/mol, the “unfolding enthalpy (calorimetric)” value was found to be 31.9 kcal/mol and the unfolding free energy was 1.72 kcal/mol. Besides, where the note is “transition: 3”, the “change of melting temperature, mutant” value is -4.16 °C; the “unfolding enthalpy (calorimetric)” value is 43.8 kcal/mol and 42.8 kcal/mol.
